# Measured values as given in the supplement of paper PMC9112550, “Optimization of the antimicrobial peptide Bac7 by deep mutational scanning” (BMC Biology, 2022).
# Tested on: Escherichia coli TOP10
# Assay: shrunken log2 fold change of peptide-encoding DNA abundance (4.5 h post-induction vs induction); higher = less antimicrobial activity (less host growth inhibition)
# Details: time post-induction: 4.5 h; library: site-saturation at positions 5, 18, 19, 20
# 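Also: peptides expressed intracellularly from a pBAD plasmid library in pooled LB shake-flask culture, induced with 0.3% L-arabinose, DNA abundance read by NGS, three biological replicates, DESeq2 with apeglm shrinkage.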
row,Sequence,shrunken log2 fold change
1,RRIRWRPPRLPRPRPRPLFSPRP,0.0976
2,RRIRYRPPRLPRPRPRPKRIPRP,-0.0123
3,RRIRNRPPRLPRPRPRPGIFPRP,-0.0122
4,RRIRWRPPRLPRPRPRPEACPRP,1.5
5,RRIRVRPPRLPRPRPRPWVSPRP,-0.278
6,RRIRSRPPRLPRPRPRPWCDPRP,-0.238
7,RRIRTRPPRLPRPRPRPAFFPRP,0.0542
8,RRIRTRPPRLPRPRPRPQRCPRP,0.00192
9,RRIRYRPPRLPRPRPRPFAEPRP,-0.509
10,RRIRHRPPRLPRPRPRPDLMPRP,-0.175
11,RRIRNRPPRLPRPRPRPCKYPRP,-1.14
12,RRIRIRPPRLPRPRPRPYYQPRP,-0.296
13,RRIRNRPPRLPRPRPRPRNNPRP,-0.45
14,RRIRERPPRLPRPRPRPKLMPRP,0.0215
15,RRIRLRPPRLPRPRPRPIQMPRP,-0.0252
16,RRIRPRPPRLPRPRPRPSNIPRP,-1.15
17,RRIRNRPPRLPRPRPRPTKAPRP,-0.00132
18,RRIRCRPPRLPRPRPRPFSWPRP,-0.141
19,RRIRSRPPRLPRPRPRPMWCPRP,0.136
20,RRIRNRPPRLPRPRPRPMCSPRP,-0.0636
21,RRIRIRPPRLPRPRPRPYDQPRP,-0.295
22,RRIRRRPPRLPRPRPRPTAEPRP,-0.0162
23,RRIRWRPPRLPRPRPRPSSQPRP,-0.317
24,RRIRGRPPRLPRPRPRPHVQPRP,0.262
25,RRIRVRPPRLPRPRPRPTSPPRP,0.0262

row,Sequence,shrunken log2 fold change
1,RRIRRRPPRLPRPRPRPGPNPRP,0.251
2,RRIRLRPPRLPRPRPRPLHFPRP,-0.197
3,RRIRTRPPRLPRPRPRPGHCPRP,-0.0671
4,RRIRTRPPRLPRPRPRPNYWPRP,-0.208
5,RRIRLRPPRLPRPRPRPRGWPRP,0.722
6,RRIRVRPPRLPRPRPRPAWRPRP,0.712
7,RRIRMRPPRLPRPRPRPKDQPRP,2.28
8,RRIRHRPPRLPRPRPRPTRVPRP,0.211
9,RRIRERPPRLPRPRPRPYANPRP,0.0234
10,RRIRCRPPRLPRPRPRPWNYPRP,-0.282
11,RRIRQRPPRLPRPRPRPNNGPRP,-0.361
12,RRIRMRPPRLPRPRPRPCVYPRP,-0.195
13,RRIRERPPRLPRPRPRPWCPPRP,-0.758
14,RRIRFRPPRLPRPRPRPFWKPRP,-0.0963
15,RRIRSRPPRLPRPRPRPVNGPRP,-0.00994
16,RRIRLRPPRLPRPRPRPYRAPRP,-0.21
17,RRIRMRPPRLPRPRPRPDPHPRP,0.0256
18,RRIRTRPPRLPRPRPRPNICPRP,0.00449
19,RRIRTRPPRLPRPRPRPGRRPRP,0.244
20,RRIRNRPPRLPRPRPRPHCEPRP,-0.778
21,RRIRERPPRLPRPRPRPMLWPRP,-0.0445
22,RRIRFRPPRLPRPRPRPYWWPRP,-0.198
23,RRIRERPPRLPRPRPRPVAGPRP,0.246
24,RRIRNRPPRLPRPRPRPFDNPRP,-0.465
25,RRIRLRPPRLPRPRPRPDCQPRP,0.153

row,Sequence,shrunken log2 fold change
1,RRIRERPPRLPRPRPRPKQTPRP,-0.0871
2,RRIRYRPPRLPRPRPRPTVQPRP,0.028
3,RRIRQRPPRLPRPRPRPNPLPRP,-0.0379
4,RRIRSRPPRLPRPRPRPLAHPRP,-0.0709
5,RRIRTRPPRLPRPRPRPPLFPRP,0.482
6,RRIRWRPPRLPRPRPRPFHMPRP,-0.138
7,RRIRVRPPRLPRPRPRPINKPRP,-0.613
8,RRIRDRPPRLPRPRPRPGWPPRP,0.514
9,RRIRNRPPRLPRPRPRPKDNPRP,-0.484
10,RRIRPRPPRLPRPRPRPICLPRP,2.37
11,RRIRHRPPRLPRPRPRPWCYPRP,-0.297
12,RRIRERPPRLPRPRPRPDWIPRP,-0.126
13,RRIRLRPPRLPRPRPRPKYNPRP,-0.703
14,RRIRFRPPRLPRPRPRPFYKPRP,-0.311
15,RRIRCRPPRLPRPRPRPAKKPRP,0.00097
16,RRIRGRPPRLPRPRPRPGYNPRP,0.0217
17,RRIRCRPPRLPRPRPRPCECPRP,-0.0911
18,RRIRQRPPRLPRPRPRPVTQPRP,-0.378
19,RRIRFRPPRLPRPRPRPAQYPRP,-0.574
20,RRIRKRPPRLPRPRPRPTTAPRP,0.271
21,RRIRERPPRLPRPRPRPVMMPRP,-0.144
22,RRIRMRPPRLPRPRPRPNYRPRP,-0.133
23,RRIRKRPPRLPRPRPRPEGMPRP,0.194
24,RRIRIRPPRLPRPRPRPVLLPRP,-0.03
25,RRIRFRPPRLPRPRPRPTHSPRP,0.207
